The record followed here is patent publication US6958236B2, “Control of gene expression in plants” (priority 2000, dated 2005).

The assay has as its system pCGS154 reporter. In words: Transient transfection of S2 Drosophila cells with luciferase reporter and EcR receptor plasmids. It counts as cell-based. How it is done:
An in vivo cell based assay is designed to measure transcriptional activation by the receptors of a reporter plasmid. S2 Drosophila cells (ATCC CRL-1963) are transiently transfected with luciferase reporter and receptor expression plasmids using the calcium phosphate precipitation procedure (Di Nocera and David (1983) PNAS 80, 7095-7098). S2 cells are plated in 96 well format at a density of 2×10^5 in 166.6 μl of Schneider's Drosophila media supplemented with antibiotics and 10% heat inactivated fetal bovine serum (GIBO-BRL). The following day, 33.4 μl of a calcium phosphate precipitate containing 3-6 ng of pCGS154 reporter plasmid, 3-6 ng of EcR receptor plasmid along with salmon sperm DNA to a total of 400 ng DNA per well is added. Chemical ligands are added 16-24 hours after DNA addition to the cells. Cells are then harvested and extracted 24 hours after chemistry addition following the procedures for the luciferase assay by centrifuging and resuspending the cell pellets in 100 μl of cell culture lysis reagent (Promega). Luciferase activity is quantitated using chemiluminescence (Promega) using an analytical luminescence model 2001 luminometer.
S2 cells contain Drosophila EcR and USP. The endogenous USP can be used as the heterodimerization partner for EcR or exogenous USP expression plasmid can be added to the assay.
To compare the activities of Manduca and Drosophila EcR, S2 cells are transiently transfected using the above procedure with the reporter plasmid pCGS 154 and either full-length Drosophila EcR, DDV, full-length Manduca EcR, or MMV. Tebufenozide at 0.2 µM and 2 μM is used as the chemical ligand. Luciferase assays are performed as described above. All of the results are normalized as a ratio of activity to the light unit value for the pCGS154 reporter without chemistry.
The activities of the EcR-VP16 chimeras are compared by transiently transfecting S2 cells as described in Example 3. Tebufenozide is added to the cells at 0.2 μM concentration. Results are expressed as fold activation, a ratio of the activity of the constructs with chemistry added as compared to activity of the constructs without chemistry. All results are normalized to the luciferase activity of the pCGS154 reporter without receptor addition.
The activities of the EcR-VP16 chimeras are compared by transiently transfecting S2 cells as in Example 3. Tebufenozide is added to the cells at 0.2 μM concentration. Results are expressed as fold activation of constructs with chemistry as compared to without chemistry. All results are normalized to the luciferase activity of the pCGS154 reporter without receptor.
The activities of the EcR-VP16 chimeras are compared by transiently transfecting S2 cells as in Example 3. Tebufenozide is added to the cells at 0.2 μM concentration. Results are expressed as fold activation of constructs with chemistry as compared to without chemistry addition. All results are normalized to the luciferase activity of the pCGS154 reporter without receptor.
On the technique in general: Reporter assays use an easily measured gene product as a stand-in for the process of interest.

B1: MEV: EcR chimera: Manduca sexta C+D domains, European corn borer (Ostrinia nubilalis) E domain, VP16; SEQ ID NO:67-68 (protein)
chain: MGREELSPASSINGCSTDGEPRRQKKGPAPRQQEELCLVCGDRASGYHYNALTCEGCKGFFRRSVTKNAVYICKFGHACEMDMYMRRKCQECRLKKCLAVGMRPECVVPESTCKNKRREKEAQREKDKLPVSTTTVDDHMPAIMQCDPPPPEAARIHEVVPRFLTEKLMEQNRLKNVTPLSANQKSLIARLVWYQDGYEQPSEEDLKRVTQTWQSADEEDEDSDMPFRQITEMTILTVQLIVEFAKGLPGFSKISQPDQITLLKACSSEVMMLRVARRYDAVSDSVLFANNQAYTRDNYRKAGMAYVIEDLLHFCRCMYSMSMDNVHYALLTAIVIFSDRPGLEQPQLVEEIQRYYLNTLRVYIMNQHSASPRCAVIYAKILSVLTELRTLGMQNSNMCISLKLKNRKLPPFLEEIWDVKLAPPTDVSLGDELHLDGEDVAMAHADALDDFDLDMLGDGDSPGPGFTPHDSAPYGALDMADFEFEQMFTDALGIDEYGG
Consider B1, for which, where the note is “Example 7, 0.2 μM tebufenozide”, the “Fold Activation With Chemistry Assay #1” value turned out to be 363.7 fold and the “Fold Activation With Chemistry Assay #2” value was determined as 131.5 fold.

B2: MBV: EcR chimera: Manduca sexta C+D domains, black cutworm (Agrotis ipsilon) E domain, VP16; SEQ ID NO:65-66 (protein)
chain: MGREELSPASSINGCSTDGEPRRQKKGPAPRQQEELCLVCGDRASGYHYNALTCEGCKGFFRRSVTKNAVYICKFGHACEMDMYMRRKCQECRLKKCLAVGMRPECVVPESTCKNKRREKEAQREKDKLPVSTTTVDDHMPAIMQCDPPPPEAARIHEVVPRFLTEKLMEQNRLKNVTPLSANQKSLIARLVWYQEGYEQPSEEDLKRVTQTWQSDEDEEESDMPFRQITEMTILTVQLIVEFAKGLPGFAKISQSDQITLLKACSSEVMMLRVARRYDAATDSVLFANNQAYSRDNYRKAGMSYVIEDLLHFCRCMYSMMMDNVHYALLTAIVIFSDRPGLEQPLLVEEIQRYYLNTLRVYILNQNSASPRCPVVFAKILGILTELRTLGMQNSNMCISLKLKNRKLPPFLEEIWDVESRGKLAPPTDVSLGDELHLDGEDVAMAHADALDDFDLDMLGDGDSPGPGFTPHDSAPYGALDMADFEFEQMFTDALGIDEYGG
For the molecule B2, where the note is “Example 7, 0.2 μM tebufenozide”, the “Fold Activation With Chemistry Assay #1” value is 215.7 fold and the “Fold Activation With Chemistry Assay #2” value came to 211.1 fold. For the setting “Example 8, 0.2 μM tebufenozide”, the “Fold Activation With Chemistry Assay #1” value was determined as 559.1 fold and the “Fold Activation With Chemistry Assay #2” value is reported as 866.7 fold.

B3: MFV: EcR chimera: Manduca sexta C+D domains, fall armyworm (Spodoptera frugiperda) E domain, VP16; SEQ ID NO:69-70 (protein)
chain: MGREELSPASSINGCSTDGEPRRQKKGPAPRQQEELCLVCGDRASGYHYNALTCEGCKGFFRRSVTKNAVYICKFGHACEMDMYMRRKCQECRLKKCLAVGMRPECVVPESTCKNKRREKEAQREKDKLPVSTTTVDDHMPAIMQCDPPPPEAARIHEVVPRFLTEKLMEQNRLKNVTPLSANQKSLIARLVWYQEGYEQPSEEDLKRVTQTWQLEEEEEEETDMPFRQITEMTILTVQLIVEFAKGLPGFSKISQSDQITLLKASSSEVMMLRVARRYDAATDSVLFANNQAYTRDNYRKAGMSYVIGDLLHFCRCMYSMSMDNVHYALLTAIVIFSDRPGLEQPLLVEEIQRYYLKTLRVYILNQYSASPRCAVLFGKILGVLTELRTLGTQNSNMCISLKLKNRKLPPFLEEIWDVKLAPPTDVSLGDELHLDGEDVAMAHADALDDFDLDMLGDGDSPGPGFTPHDSAPYGALDMADFEFEQMFTDALGIDEYGG
On to B3, for which, where the note is “Example 7, 0.2 μM tebufenozide”, the “Fold Activation With Chemistry Assay #1” value amounted to 159.9 fold and the “Fold Activation With Chemistry Assay #2” value is given as 175.4 fold.
